T1: MBP-Pds5B (1–300) (UniProt Q9NTI5 1-300)
T1 construct: Pds5B residues 1–300, in pMAL-C2E; also called recombinant MBP-Pds5B (1–300); purified MBP-Pds5B; source: E. coli BL21 (DE3), purified (Amylose Resin); not shown: MBP, N-terminal, kept
T1 sequence (looked up): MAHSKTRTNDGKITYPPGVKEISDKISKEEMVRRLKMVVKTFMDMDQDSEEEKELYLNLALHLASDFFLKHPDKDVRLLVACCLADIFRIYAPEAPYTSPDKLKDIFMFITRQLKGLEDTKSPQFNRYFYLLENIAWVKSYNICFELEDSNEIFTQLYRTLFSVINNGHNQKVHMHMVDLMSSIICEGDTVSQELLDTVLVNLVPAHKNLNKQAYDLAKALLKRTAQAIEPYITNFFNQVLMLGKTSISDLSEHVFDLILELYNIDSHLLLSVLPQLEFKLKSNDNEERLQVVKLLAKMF

T2: GST-Pds5B (1–300) (UniProt Q9NTI5 1-300)
T2 construct: Pds5B residues 1–300, in pGEX-4T1; also called GST-fused Pds5B (1–300) fragment; GST-Pds5B (1–300) WT; source: E. coli BL21 (DE3), purified (Glutathione Sepharose 4B); not shown: GST, N-terminal, kept
T2 sequence (looked up): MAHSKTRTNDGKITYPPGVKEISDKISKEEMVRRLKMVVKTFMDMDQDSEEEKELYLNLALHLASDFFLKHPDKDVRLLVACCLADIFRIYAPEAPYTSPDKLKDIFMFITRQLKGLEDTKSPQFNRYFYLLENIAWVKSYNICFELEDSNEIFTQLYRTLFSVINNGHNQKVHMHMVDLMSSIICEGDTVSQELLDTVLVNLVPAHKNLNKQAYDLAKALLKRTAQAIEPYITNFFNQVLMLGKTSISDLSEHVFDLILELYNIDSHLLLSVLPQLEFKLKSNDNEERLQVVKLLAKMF


Target: T1, MBP-Pds5B (1–300)
Test: pull-down; competitive: purified MBP-Pds5B (1–300) mixed with GFP-2xStrep or increasing amounts of GFP-ATRX (1394–1443)-2xStrep (WT or Y1419A), pulled down with Wapl (1–28)-GST
Details: both partners purified

binding result | Binder
binds | SESEDEQRPRTRSAKKAELEENQRSYKQKKKRRRIKVQEDSSSENKSNSE (domain or fragment, UniProt P46100 1394-1443, looked up, source: E. coli BL21 (DE3), purified (Strep-Tactin Superflow); not shown: GFP, N-terminal, kept; 2xStrep, C-terminal, kept) [GFP-ATRX (1394–1443)-2xStrep]
binds | MTSRFGKTYSRKGGNGSSKFDEVFSNKR (domain or fragment, UniProt Q7Z5K2 1-28, looked up, Wapl residues 1–28, in pETGEX-CT; also called short Wapl fragment (residues 1–28) containing the YSR motif; Wapl (1–28)-GST WT; source: E. coli BL21 (DE3), purified (Glutathione Sepharose 4B); not shown: GST, C-terminal, kept) [Wapl (1–28)-GST]

Target: T2, GST-Pds5B (1–300)
Test: pull-down; recombinant GFP-ATRX (1394–1443)-2xStrep (wild-type or mutants) pulled down with GST or GST-Pds5B (1–300); immunoblot for GFP and CBB
Details: both partners purified

binding result | Binder
binds | SESEDEQRPRTRSAKKAELEENQRSYKQKKKRRRIKVQEDSSSENKSNSE (domain or fragment, UniProt P46100 1394-1443, looked up, source: E. coli BL21 (DE3), purified (Strep-Tactin Superflow); not shown: GFP, N-terminal, kept; 2xStrep, C-terminal, kept) [GFP-ATRX (1394–1443)-2xStrep]
binds | SESEDEQRPRTRSAKKAELEENQASYKQKKKRRRIKVQEDSSSENKSNSE (domain or fragment, UniProt P46100 1394-1443, looked up, source: E. coli BL21 (DE3), purified (Strep-Tactin Superflow); not shown: GFP, N-terminal, kept; 2xStrep, C-terminal, kept) [GFP-ATRX (1394–1443)-2xStrep R1417A]
binds | SESEDEQRPRTRSAKKAELEENARSYKQKKKRRRIKVQEDSSSENKSNSE (domain or fragment, UniProt P46100 1394-1443, looked up, source: E. coli BL21 (DE3), purified (Strep-Tactin Superflow); not shown: GFP, N-terminal, kept; 2xStrep, C-terminal, kept) [GFP-ATRX (1394–1443)-2xStrep Q1416A]
binds | SESEDEQRPRTRSAKKAELAENQRSYKQKKKRRRIKVQEDSSSENKSNSE (domain or fragment, UniProt P46100 1394-1443, looked up, source: E. coli BL21 (DE3), purified (Strep-Tactin Superflow); not shown: GFP, N-terminal, kept; 2xStrep, C-terminal, kept) [GFP-ATRX (1394–1443)-2xStrep E1413A]
binds | SESEDEQRPRTRSAKKAELEEAQRSYKQKKKRRRIKVQEDSSSENKSNSE (domain or fragment, UniProt P46100 1394-1443, looked up, source: E. coli BL21 (DE3), purified (Strep-Tactin Superflow); not shown: GFP, N-terminal, kept; 2xStrep, C-terminal, kept) [GFP-ATRX (1394–1443)-2xStrep N1415A]
binds | SESEDEQRPRTRSAKKAELEENQRSYAQKKKRRRIKVQEDSSSENKSNSE (domain or fragment, UniProt P46100 1394-1443, looked up, source: E. coli BL21 (DE3), purified (Strep-Tactin Superflow); not shown: GFP, N-terminal, kept; 2xStrep, C-terminal, kept) [GFP-ATRX (1394–1443)-2xStrep K1420A]
binds | SESEDEQRPRTRSAKKAELEANQRSYKQKKKRRRIKVQEDSSSENKSNSE (domain or fragment, UniProt P46100 1394-1443, looked up, source: E. coli BL21 (DE3), purified (Strep-Tactin Superflow); not shown: GFP, N-terminal, kept; 2xStrep, C-terminal, kept) [GFP-ATRX (1394–1443)-2xStrep E1414A]
binds | SESEDEQRPRTRSAKKAELEENQRSYKAKKKRRRIKVQEDSSSENKSNSE (domain or fragment, UniProt P46100 1394-1443, looked up, source: E. coli BL21 (DE3), purified (Strep-Tactin Superflow); not shown: GFP, N-terminal, kept; 2xStrep, C-terminal, kept) [GFP-ATRX (1394–1443)-2xStrep Q1421A]
binds | SESEDEQRPRTRSAKKAELEENQRAYKQKKKRRRIKVQEDSSSENKSNSE (domain or fragment, UniProt P46100 1394-1443, looked up, source: E. coli BL21 (DE3), purified (Strep-Tactin Superflow); not shown: GFP, N-terminal, kept; 2xStrep, C-terminal, kept) [GFP-ATRX (1394–1443)-2xStrep S1418A]

Source: article PMC12264150, “A chromatin-remodeling-independent role for ATRX in protecting centromeric cohesion” (The EMBO Journal, 2025)
